B1: DnaJ homolog subfamily C member 2, residues 451 to 503; numbered along this chain, Q99543 (parent)
chain: SKNWSEDDLQLLIKAVNLFPAGTNSRWEVIANYMNIHSSSGVKRTAKDVIGKA

Variants of: B1
Experiment: abundance fitness (aPCA) (normalised: wild type 0, dead -1); higher = more abundant; growth selection in yeast, the domain comes from the species named
Details: Homo sapiens

Abundance fitness, by site and new letter:
E28: M -0.44; Y -0.866; K -0.237; R -0.138; S -0.013; F -0.376; D -0.089; A -0.278; G -0.397; C -0.49; P -0.627; Q 0.009; T -0.351; N -0.312; W -0.592; V -0.259
R26: A -0.557; T -0.52; G -0.74; S -0.934; H -0.831
L18: H -0.272; D -0.332; V -0.108; E -0.305; K -0.268; W -0.547; A 0.043; G -0.53; Q -0.38; I -0.073; Y -0.173; P -0.807; C -0.222; S -0.273; F -0.219; R -0.145; T -0.054; M 0.065
N35: M -0.56; V -0.815; I -0.86; Q -0.558; G -0.646; K -0.871; H -0.519; C -0.587; T -0.345; D -0.685; P -1.08; R -0.59; S -0.186; W -0.897; L -1.07; Y -0.775
S25: L -0.239; A -0.094; Y -0.281; G -0.077; E -0.159; T -0.144; W -0.219; C -0.04; F -0.272; D 0.062; K -0.003; N -0.384; I -0.788; Q -0.235
N24: M -0.056; H 0.118; D 0.008; I -0.09; W -0.279; Q -0.112; C -0.166; E 0.07; P -0.066; R -0.045; L -0.116; V -0.068; T -0.024; S -0.043; A 0.14; F -0.101; K -0.013; G -0.276
I36: Q 0.079; C 0.043; Y -0.141; N 0.049; F -0.116; L 0.049; W -0.134; K 0.208; S 0.014; T -0.007; H -0.135; P -0.994; G -0.009
P20: M -0.955; N -0.292; G -0.103; Q -0.328; V -0.772; D -0.13; E -0.358; W -0.975; R -0.392; I -0.961; T -0.607; F -0.984; H -0.228; C -0.555; S -0.411; A -0.571
F19: M -0.572; V -0.102; T -0.456; P -1.11; L -0.602; A -0.536; N -0.803; S -0.622; I -0.29; C -0.586; D -0.948; K -0.961; W -0.215; H -0.093; Y -0.178; E -1.06; Q -0.86; R -0.91
N32: D -0.016; T -0.13; A -0.04; Q -0.103; I -0.66; F -0.542; M -0.302; C -0.524; G -0.2; H 0.076; Y -0.507; P -0.93; W -0.38; E 0.061; L -0.315; R -0.095; K -0.083
T23: G -0.262; C -0.353; Y -0.201; E -0.325; A -0.267; D -0.165; L -0.221; R -0.649; M -0.221; K -0.587; S -0.276; F 0.038; I -0.226; P -0.539; V -0.302; H -0.147; Q -0.162
V29: K -0.113; W -0.082; I -0.127; C -0.071; A 0.082; Q 0.104; M 0.078; R 0.043; T 0.008; G -0.026; N -0.166; F -0.32; E -0.103; L -0.051; D 0.16; S 0.01; H -0.096; P -0.696; Y -0.166
I30: N -0.999; R -0.951; W -0.839; Q -1; E -0.955; G -0.905; D -0.729; V -0.019; T -0.987; M -0.535; L -0.789; S -0.947; F -0.635; Y -0.923; P -0.94; K -0.873; A -0.651
W27: A -0.114; L -0.597; M -0.323; Y -0.299; H -0.537; V -0.444; T -0.475; I -0.286; C -0.261; R -0.791; Q -0.726; D -0.419; F -0.207; P -0.247; E -0.168; N -0.581; G -0.138
G22: Y -0.267; Q -0.293; P -0.217; H -0.166; I -0.194; T -0.065; K -0.146; W -0.293; C 0.015; R -0.098; D -0.016; L -0.484; V -0.28; A -0.064; E 0.011; S 0.002; F -0.489; M -0.371
H37: Y -0.044
N17: W -0.348; R -0.036; T -0.016; S -0.061; Y -0.194; V -0.161
Y33: G -0.981; N -0.968; W -0.073; A -0.752; E -0.805; I -1.02; D -0.977; H -0.414; Q -0.746; S -0.87; V -0.847; R -0.865; M -0.882; L -0.914; C -0.996; T -0.915; K -0.568; P -0.938
M34: P -0.553; V 0.003; G -0.977; F -0.317; Y -0.722; Q -0.696; W -0.666; C -0.136; H -0.683; E -0.816; I -0.011; D -0.833; A -0.895; R -0.963; L -0.056
A31: K -0.357; W -0.857; R -0.384; S -0.179; G -0.607; F -1.01; T 0.051; Y -1.08; Q -0.549; M -0.66; V -0.397; I -0.82; L -0.463; N -0.768; P -0.837; H -0.919; E -0.859; D -0.831
S38: R -0.435; L -0.86; G -0.069; P -0.936; V -0.755; K -0.517; Y -1.03; F -0.822; Q -0.176; I -1.04; W -1; H -0.525; E -0.609; N -0.162; T -0.116; C -0.169; A -0.224; D -0.61
A21: K -0.018; R -0.054; H 0.083; N -0.217; C -0.117; S -0.029; P -0.094; E 0.066; M 0.005; T -0.016; G -0.122; F -0.096; Y -0.265; W -0.244; V -0.142; I -0.185; Q 0.049; L -0.079; D -0.039

— the Human Domainome abundance scans (Beltran et al. 2025)
